Experimental data reported in patent publication US20190046600A1 (published 2019).
Square brackets hold non-standard residues; d marks the D form. Phe(4-guanidino) = N=C(N)Nc1ccc(C[C@H](N)C(=O)O)cc1

Biological target: Lactate dehydrogenase A [LDHA] (human, UniProt P00338 2-332)
Test: cell-based or functional assay

Binder | IC50 of LDH activity (Abcam LDH activity kit, lysates of NCI-H460 cells treated for 24 or 96 h)
PRGPRPVWWRRWWRRWW (cyclic peptide (cyclo-[...])) [HILR-025 (cyclo-[Pro-Arg-Gly-Pro-Arg-Pro-Val-Trp-Trp-Arg-Arg-Trp-Trp-Arg-Arg-Trp-Trp])] | 16 µM
cyclo(PRGPRPVWW[Phe(4-guanidino)][Phe(4-guanidino)]WW[Phe(4-guanidino)][Phe(4-guanidino)]WW) [HILR-030 (cyclo-[Pro-Arg-Gly-Pro-Arg-Pro-Val-Trp-Trp-Gpa-Gpa-Trp-Trp-Gpa-Gpa-Trp-Trp])] | 22 µM
